Common to all, as to experiment: cell-based or functional assay
Assay [1] addresses T1, CD380 PV1-RfxCas13d-656C-NLS-BGHpA.
T1 sequence: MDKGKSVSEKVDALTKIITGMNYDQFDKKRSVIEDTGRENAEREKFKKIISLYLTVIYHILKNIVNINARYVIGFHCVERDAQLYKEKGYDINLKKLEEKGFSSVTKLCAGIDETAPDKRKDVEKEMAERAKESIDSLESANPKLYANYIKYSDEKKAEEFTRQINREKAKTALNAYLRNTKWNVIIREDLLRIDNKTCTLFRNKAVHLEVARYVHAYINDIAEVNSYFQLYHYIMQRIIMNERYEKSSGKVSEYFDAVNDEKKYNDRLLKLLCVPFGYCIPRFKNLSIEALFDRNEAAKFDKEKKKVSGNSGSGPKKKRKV

Assay [2] concerns the target T2, CD376 PV1-RfxCas13d-566C-NLS-BGHpA.
T2 sequence: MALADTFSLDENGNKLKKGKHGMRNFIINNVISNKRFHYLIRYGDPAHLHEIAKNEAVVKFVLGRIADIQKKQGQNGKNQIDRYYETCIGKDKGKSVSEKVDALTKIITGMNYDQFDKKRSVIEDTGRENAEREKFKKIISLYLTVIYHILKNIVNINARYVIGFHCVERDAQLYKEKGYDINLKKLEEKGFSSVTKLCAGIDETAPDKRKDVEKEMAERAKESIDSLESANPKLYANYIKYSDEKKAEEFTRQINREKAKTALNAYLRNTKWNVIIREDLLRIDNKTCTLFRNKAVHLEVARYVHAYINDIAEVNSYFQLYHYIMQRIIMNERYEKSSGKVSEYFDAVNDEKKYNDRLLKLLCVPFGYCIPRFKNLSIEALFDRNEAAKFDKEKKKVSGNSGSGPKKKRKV

Assay [3] concerns the target T3, CD400 PV1-GAI-L1-RfxCas13d-264C-NLS-BGHpA.
T3 sequence: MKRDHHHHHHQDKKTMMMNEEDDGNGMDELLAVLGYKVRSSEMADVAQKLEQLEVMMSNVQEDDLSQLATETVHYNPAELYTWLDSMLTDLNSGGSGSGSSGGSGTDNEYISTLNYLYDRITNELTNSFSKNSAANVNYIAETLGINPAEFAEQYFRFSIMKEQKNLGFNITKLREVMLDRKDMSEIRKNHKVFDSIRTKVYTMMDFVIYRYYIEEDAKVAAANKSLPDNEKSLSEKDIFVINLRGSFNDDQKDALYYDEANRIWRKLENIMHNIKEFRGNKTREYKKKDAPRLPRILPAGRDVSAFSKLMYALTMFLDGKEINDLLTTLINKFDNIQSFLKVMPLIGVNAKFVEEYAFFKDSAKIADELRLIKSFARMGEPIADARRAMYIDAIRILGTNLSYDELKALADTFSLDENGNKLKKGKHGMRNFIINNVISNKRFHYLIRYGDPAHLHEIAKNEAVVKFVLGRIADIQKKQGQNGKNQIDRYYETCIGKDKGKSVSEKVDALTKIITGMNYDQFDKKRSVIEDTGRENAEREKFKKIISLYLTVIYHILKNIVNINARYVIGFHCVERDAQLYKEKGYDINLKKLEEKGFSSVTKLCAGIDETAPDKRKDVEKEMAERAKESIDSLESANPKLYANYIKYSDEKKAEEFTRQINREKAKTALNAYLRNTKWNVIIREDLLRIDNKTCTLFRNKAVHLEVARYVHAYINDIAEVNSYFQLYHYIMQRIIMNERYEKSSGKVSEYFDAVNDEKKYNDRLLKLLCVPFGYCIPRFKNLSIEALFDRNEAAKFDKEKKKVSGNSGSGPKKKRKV

B1: CD379 PV1-RfxCas13d-N655-NLS-BGHpA (protein)
chain: MIEKKKSFAKGMGVKSTLVSGSKVYMTTFAEGSDARLEKIVEGDSIRSVNEGEAFSAEMADKNAGYKIGNAKFSHPKGYAVVANNPLYTGPVQQDMLGLKETLEKRYFGESADGNDNICIQVIHNILDIEKILAEYITNAAYAVNNISGLDKDIIGFGKFSTVYTYDEFKDPEHHRAAFNNNDKLINAIKAQYDEFDNFLDNPRLGYFGQAFFSKEGRNYIINYGNECYDILALLSGLRHWVVHNNEEESRISRTWLYNLDKNLDNEYISTLNYLYDRITNELTNSFSKNSAANVNYIAETLGINPAEFAEQYFRFSIMKEQKNLGFNITKLREVMLDRKDMSEIRKNHKVFDSIRTKVYTMMDFVIYRYYIEEDAKVAAANKSLPDNEKSLSEKDIFVINLRGSFNDDQKDALYYDEANRIWRKLENIMHNIKEFRGNKTREYKKKDAPRLPRILPAGRDVSAFSKLMYALTMFLDGKEINDLLTTLINKFDNIQSFLKVMPLIGVNAKFVEEYAFFKDSAKIADELRLIKSFARMGEPIADARRAMYIDAIRILGTNLSYDELKALADTFSLDENGNKLKKGKHGMRNFIINNVISNKRFHYLIRYGDPAHLHEIAKNEAVVKFVLGRIADIQKKQGQNGKNQIDRYYETCIGKPKKKRKV
In turn, B1 returned a gRNA induced knockdown of mCherry without CID domains in assay [1] below 80%.

B2: CD375 PV1-RfxCas13d-N565-NLS-BGHpA (protein)
chain: MIEKKKSFAKGMGVKSTLVSGSKVYMTTFAEGSDARLEKIVEGDSIRSVNEGEAFSAEMADKNAGYKIGNAKFSHPKGYAVVANNPLYTGPVQQDMLGLKETLEKRYFGESADGNDNICIQVIHNILDIEKILAEYITNAAYAVNNISGLDKDIIGFGKFSTVYTYDEFKDPEHHRAAFNNNDKLINAIKAQYDEFDNFLDNPRLGYFGQAFFSKEGRNYIINYGNECYDILALLSGLRHWVVHNNEEESRISRTWLYNLDKNLDNEYISTLNYLYDRITNELTNSFSKNSAANVNYIAETLGINPAEFAEQYFRFSIMKEQKNLGFNITKLREVMLDRKDMSEIRKNHKVFDSIRTKVYTMMDFVIYRYYIEEDAKVAAANKSLPDNEKSLSEKDIFVINLRGSFNDDQKDALYYDEANRIWRKLENIMHNIKEFRGNKTREYKKKDAPRLPRILPAGRDVSAFSKLMYALTMFLDGKEINDLLTTLINKFDNIQSFLKVMPLIGVNAKFVEEYAFFKDSAKIADELRLIKSFARMGEPIADARRAMYIDAIRILGTNLSYDELKPKKKRKV
For the molecule B2, the gRNA induced knockdown of mCherry without CID domains in assay [2] is below 80%.

B3: CD399 PV1-RfxCas13d-N263-L1-GID-NLS-BGHpA (protein)
chain: MIEKKKSFAKGMGVKSTLVSGSKVYMTTFAEGSDARLEKIVEGDSIRSVNEGEAFSAEMADKNAGYKIGNAKFSHPKGYAVVANNPLYTGPVQQDMLGLKETLEKRYFGESADGNDNICIQVIHNILDIEKILAEYITNAAYAVNNISGLDKDIIGFGKFSTVYTYDEFKDPEHHRAAFNNNDKLINAIKAQYDEFDNFLDNPRLGYFGQAFFSKEGRNYIINYGNECYDILALLSGLRHWVVHNNEEESRISRTWLYNLDKNLSGGSGSGSSGGSGTMAASDEVNLIESRTVVPLNTWVLISNFKVAYNILRRPDGTFNRHLAEYLDRKVTANANPVDGVFSFDVLIDRRINLLSRVYRPAYADQEQPPSILDLEKPVDGDIVPVILFFHGGSFAHSSANSAIYDTLCRRLVGLCKCVVVSVNYRRAPENPYPCAYDDGWIALNWVNSRSWLKSKKDSKVHIFLAGDSSGGNIAHNVALRAGESGIDVLGNILLNPMFGGNERTESEKSLDGKYFVTVRDRDWYWKAFLPEGEDREHPACNPFSPRGKSLEGVSFPKSLVVVAGLDLIRDWQLAYAEGLKKAGQEVKLMHLEKATVGFYLLPNNNHFHNVMDEISAFVNAECPKKKRKV
In turn, B3 came in with a knockdown efficiency of mCherry with gibberellin and gRNA in assay [3] above 60%.
